± gives the uncertainty stated by the source.
B1: Histone-lysine N-methyltransferase SETD2, residues 2382 to 2430; numbered along this chain, Q9BYW2 (parent)
chain: SPPKPKTIVLPPNWKTARDPEGKIYYYHVITRQTQWDPPTWESPGDDAS

Variants of: B1
Experiment: abundance fitness (aPCA) (normalised: wild type 0, dead -1); higher = more abundant; growth selection in yeast, the domain comes from the species named
Details: Homo sapiens

Variant | abundance fitness
SPPKNKTIVLPPNWKTARDPEGKIYYYHVITRQTQWDPPTWESPGDDAS [P5N] | 0.294 ± 0.046
SPPKPKTIVLPPNWKTARDPEGKIYYYHVITRQTGWDPPTWESPGDDAS [Q35G] | -0.735 ± 0.047
SPPKPKTIVLPPNWKTARDPEGKIYYYHVITRQTYWDPPTWESPGDDAS [Q35Y] | -0.489 ± 0.038
SPPKPKTIVLPPNWKTARDPEGKIYYYHVITRQTTWDPPTWESPGDDAS [Q35T] | -0.052 ± 0.046
SPPTPKTIVLPPNWKTARDPEGKIYYYHVITRQTQWDPPTWESPGDDAS [K4T] | -0.275 ± 0.057
SPPKPKTIVLPPNWKTARDPEGKIYYYHVITRQTQWDPCTWESPGDDAS [P39C] | -0.812 ± 0.24
SPPKPKTIVLPPNWKTARDPWGKIYYYHVITRQTQWDPPTWESPGDDAS [E21W] | -0.345 ± 0.048
SPPKPKTIVLPPNWKTARDPEGKIYYYHVITRQTQWDPPTWESPGTDAS [D46T] | -0.292 ± 0.087
SPPKPKTIVLPPNWKTADDPEGKIYYYHVITRQTQWDPPTWESPGDDAS [R18D] | -0.817 ± 0.31
SPPKPKTIVLPPNWKTGRDPEGKIYYYHVITRQTQWDPPTWESPGDDAS [A17G] | -0.022 ± 0.034
SPPKPKTIVLPPNWKTARDPEGKIYYYHVITRLTQWDPPTWESPGDDAS [Q33L] | -0.411 ± 0.038
SPPKPKTIVLPPNWKTARDPEGKIYYYHVITRQTQWDPPTWESPADDAS [G45A] | 0.087 ± 0.041
SPPKPKTIVLPPNWKTARDPEGKIYYYHVITRQTQWDPPTWESPQDDAS [G45Q] | -0.313 ± 0.089
SPPKPKTIVLPPNWKTARDPEGKIYYYHVITRQTQWDPPTWESPGDDWS [A48W] | -0.07 ± 0.072
SPYKPKTIVLPPNWKTARDPEGKIYYYHVITRQTQWDPPTWESPGDDAS [P3Y] | 0.335 ± 0.051
SPPKPKTIVLPPNWKTARDPEGKIYYYHVITRQTQWDPPTWEHPGDDAS [S43H] | -0.237 ± 0.11
SPPKPKTIVLPPNWKTARDPEGKIYYYHVITRQTQWDPPTWELPGDDAS [S43L] | -0.064 ± 0.042
SPPKPKTIVLPPNWKTARDPEGKIYYYHVITRQTQWDPPTWEPPGDDAS [S43P] | -0.321 ± 0.094
SPPKPKTIVLPPNWKTARDPEGKIYYYHVITRQTQWDPPTWEEPGDDAS [S43E] | 0.193 ± 0.056
SPPKPKTIVLPPNWKTARDPEGKIYYYHVITRQTQWDPPTWEMPGDDAS [S43M] | -0.102 ± 0.076
SPPKPKTIVLPPNWKTARDPEGIIYYYHVITRQTQWDPPTWESPGDDAS [K23I] | -0.447 ± 0.14
SPPKPKTIVLPPNWKTARDPEGKIYYYHVITRQTQWDLPTWESPGDDAS [P38L] | -0.396 ± 0.052
SPPKPKTIVLPPNWKTARDPEGKIYYYHVITRQTQWDVPTWESPGDDAS [P38V] | -0.108 ± 0.034
SPPKPKTIVLPPNWKTARDPEGKIYYYMVITRQTQWDPPTWESPGDDAS [H28M] | -1.01 ± 0.29
SPPKPKTRVLPPNWKTARDPEGKIYYYHVITRQTQWDPPTWESPGDDAS [I8R] | 0.06 ± 0.04
SPPKPKTVVLPPNWKTARDPEGKIYYYHVITRQTQWDPPTWESPGDDAS [I8V] | 0.201 ± 0.038
SPPKPKTKVLPPNWKTARDPEGKIYYYHVITRQTQWDPPTWESPGDDAS [I8K] | 0.03 ± 0.034

Variant | abundance fitness
SPPKPKTWVLPPNWKTARDPEGKIYYYHVITRQTQWDPPTWESPGDDAS [I8W] | 0.001 ± 0.032
SPPKPKTIVLPPHWKTARDPEGKIYYYHVITRQTQWDPPTWESPGDDAS [N13H] | -0.052 ± 0.039
SPPKPKTIVLPPNWKTARDPEGKIYYYHVITRQTQWDPPTWESPGDVAS [D47V] | -0.063 ± 0.037
SPPKPKTIVLPPNWKRARDPEGKIYYYHVITRQTQWDPPTWESPGDDAS [T16R] | -0.052 ± 0.045
SPPKPKFIVLPPNWKTARDPEGKIYYYHVITRQTQWDPPTWESPGDDAS [T7F] | 0.278 ± 0.094
SPPKPKTIVLPPNWKTARHPEGKIYYYHVITRQTQWDPPTWESPGDDAS [D19H] | 0.027 ± 0.2
SPPKPKTIVLPPNWKTARDPEGKIYYQHVITRQTQWDPPTWESPGDDAS [Y27Q] | -0.136 ± 0.081
SPPKPKTIVLPPNWKTARDPEGKIYYWHVITRQTQWDPPTWESPGDDAS [Y27W] | -0.163 ± 0.062
SPPKPKTIVLPPNWKTARDPEGKIYYHHVITRQTQWDPPTWESPGDDAS [Y27H] | -0.293 ± 0.041
APPKPKTIVLPPNWKTARDPEGKIYYYHVITRQTQWDPPTWESPGDDAS [S1A] | -0.597 ± 0.25
SPPKPKTIVLPPNWKTARDPEGKIYYYHVITRQTQWDPPTSESPGDDAS [W41S] | 0.195 ± 0.042
SPPKPKTIVLPPNWKTARDPEGKIAYYHVITRQTQWDPPTWESPGDDAS [Y25A] | -0.642 ± 0.072
SPPKPKTIDLPPNWKTARDPEGKIYYYHVITRQTQWDPPTWESPGDDAS [V9D] | 0.486 ± 0.089
SPPKPKTIRLPPNWKTARDPEGKIYYYHVITRQTQWDPPTWESPGDDAS [V9R] | 0.025 ± 0.044
SPPKPKTICLPPNWKTARDPEGKIYYYHVITRQTQWDPPTWESPGDDAS [V9C] | 0.084 ± 0.09
SPPKPKTIVLPPNWKTARDPEGKIYYYHVITRQTQWDPPTWESNGDDAS [P44N] | -0.196 ± 0.1
SPPKPFTIVLPPNWKTARDPEGKIYYYHVITRQTQWDPPTWESPGDDAS [K6F] | -0.121 ± 0.05
SPPKPITIVLPPNWKTARDPEGKIYYYHVITRQTQWDPPTWESPGDDAS [K6I] | -0.037 ± 0.077
SPPKPKTIVLPPNWKTARDPEGKIYYYHVITRQGQWDPPTWESPGDDAS [T34G] | -0.379 ± 0.039
SPPKPKTIVLPPNWKTARDPEGKIYYYHVITRQTQWDPPVWESPGDDAS [T40V] | 0.057 ± 0.048
SPPKPKTIVLPPNWKTARDPEGKIYYYHVITRQTQWDPPFWESPGDDAS [T40F] | -0.251 ± 0.1
SPPKPKTIVLPINWKTARDPEGKIYYYHVITRQTQWDPPTWESPGDDAS [P12I] | -0.451 ± 0.16
SPPKPKTIVLPGNWKTARDPEGKIYYYHVITRQTQWDPPTWESPGDDAS [P12G] | -0.398 ± 0.039
SPPKPKTIVLPWNWKTARDPEGKIYYYHVITRQTQWDPPTWESPGDDAS [P12W] | -0.309 ± 0.062
SPPKPKTIVLPPNWKTARDPEGKIYYYHVITRQTQWCPPTWESPGDDAS [D37C] | -0.07 ± 0.071
SPPKPKTIVLPPNWKTARDPEGKIYYYHVITRQTQWMPPTWESPGDDAS [D37M] | -0.184 ± 0.054
